In publication PMC2248716:
Where two headings read alike, the source gives them in different places.

Assays:
Assay in all cases: FRET or BRET
[1] = molecular target: NaV1.4-EYFP (UniProt P15390)
[2] = molecular target: NaV1.4-EYFP (UniProt P15390); remark: listed apart in the source
[3] = molecular target: NaV1.4-EYFP (UniProt P15390); remark: listed apart in the source
[4] = molecular target: NaV1.4-EYFP (UniProt P15390); remark: listed apart in the source
[5] = molecular target: NaV1.4-EYFP (UniProt P15390); remark: listed apart in the source
[6] = molecular target: NaV1.4_(IQ/AA)-EYFP (UniProt P15390)

Substance: ECFP-CaM (from UniProt P0DP23 1-149) (natural protein)
- FRET efficiency [1]: 10.3%
- FRET ratio [1]: 2
- FRET efficiency [2]: 22.7%
- FRET efficiency [3]: 9.9%
- FRET efficiency [4]: 25.4%
- FRET efficiency [5]: 8.2%
- FRET ratio [5]: > 1
- FRET ratio [6]: < 1
